Reference: patent US20170355766A1

How the values were obtained:
Experiment in all cases: SPR (Biacore)
FcγRIIaR (human) = FcγRIIaR (human) (UniProt P12318)
[1] = target: human FcγRIIb receptor protein (R&D Systems) (human) (UniProt P31994)
[2] = target: human V158 FcγRIIIa receptor protein (6xHis and GST tags) (human) (UniProt P08637)
[3] = target: human H131 FcγRIIa receptor protein (6xHis and GST tags) (human) (UniProt P12318)
[4] = target: human FcγRI receptor protein (R&D Systems) (human) (UniProt P12314)
Sequence of human FcγRI receptor protein (R&D Systems) (human) (P12314 16-288 limits assumed): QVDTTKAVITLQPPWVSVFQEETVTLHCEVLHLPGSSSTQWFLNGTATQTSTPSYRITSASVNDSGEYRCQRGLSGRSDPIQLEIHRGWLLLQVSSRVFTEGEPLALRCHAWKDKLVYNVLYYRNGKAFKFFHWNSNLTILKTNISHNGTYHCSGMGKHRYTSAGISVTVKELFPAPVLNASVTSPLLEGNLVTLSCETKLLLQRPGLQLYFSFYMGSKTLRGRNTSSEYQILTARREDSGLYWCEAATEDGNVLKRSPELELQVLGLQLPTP

FcγRIIIaF (human) = FcγRIIIaF (human) (UniProt P08637)
Sequence of FcγRIIIaF (human) (P08637 17-208 limits assumed): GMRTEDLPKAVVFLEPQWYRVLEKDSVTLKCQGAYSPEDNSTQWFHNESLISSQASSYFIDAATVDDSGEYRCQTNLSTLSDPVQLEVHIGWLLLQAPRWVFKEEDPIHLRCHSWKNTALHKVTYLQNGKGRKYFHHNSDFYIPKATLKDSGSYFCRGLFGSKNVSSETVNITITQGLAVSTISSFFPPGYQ

Sequence of human V158 FcγRIIIa receptor protein (6xHis and GST tags) (human) (P08637 17-208 F176V limits assumed): as the sequence (P08637 17-208 limits assumed) above, with F160V counted along it
Sequence of human FcγRIIb receptor protein (R&D Systems) (human) (P31994 46-217 limits assumed): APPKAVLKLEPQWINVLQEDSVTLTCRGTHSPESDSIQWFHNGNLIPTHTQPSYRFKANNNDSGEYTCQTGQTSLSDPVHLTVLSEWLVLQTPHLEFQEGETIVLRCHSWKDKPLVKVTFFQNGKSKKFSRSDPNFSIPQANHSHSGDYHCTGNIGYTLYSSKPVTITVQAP
Sequence of FcγRIIaR (human) (P12318 34-217 H167R limits assumed): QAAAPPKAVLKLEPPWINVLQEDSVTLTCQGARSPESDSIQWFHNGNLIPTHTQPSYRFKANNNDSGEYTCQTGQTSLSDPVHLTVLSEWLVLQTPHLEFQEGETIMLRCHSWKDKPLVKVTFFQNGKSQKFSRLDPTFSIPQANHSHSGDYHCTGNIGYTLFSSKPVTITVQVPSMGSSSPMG
Sequence of human H131 FcγRIIa receptor protein (6xHis and GST tags) (human) (P12318 34-217 limits assumed): as the sequence (P12318 34-217 H167R limits assumed) above, with R134H counted along it

Row | Substance | Fold FcγRIIaR (FcγRIIaR (human)) [fold] | Fold FcγRIIb [1] [fold] | other results
1 | G236F (antibody) | 0.00859 | 0.0147 | 
2 | G236K (antibody) | 0.00859 | 0.0147 | 
3 | G236R (antibody) | 0.00859 | 0.0147 | 
4 | G236S (antibody) |  |  | Fold FcγRIIIaV [2]: 0.00367 fold
5 | G236T (antibody) |  | 0.00225 | 
6 | G236V (antibody) |  | 0.0147 | 
7 | G237E (antibody) | 0.00859 | 0.0147 | 
8 | G237K (antibody) | 0.00859 | 0.0147 | 
9 | G237P (antibody) | 0.00859 | 0.0147 | 
10 | L234K (antibody) | 0.00859 | 0.0147 | 
11 | L235N (antibody) |  | 0.147 | 
12 | L235P (antibody) |  | 0.00585 | 
13 | L235S (antibody) | 0.00859 | 0.0147 | 
14 | S267E/A327D (antibody) |  |  | Fold FcγRIIIaV [2]: 0.00199 fold
15 | S267E/A327E (antibody) |  |  | Fold FcγRIIIaV [2]: 0.00894 fold
16 | S267E/H268E/L328F (antibody) |  |  | Fold FcγRIIIaV [2]: 0.092 fold
17 | anti-CD19 IgG1/2 ELLGG antibody with S267E/L328F | 269 | 221 | Fold FcγRIIaH [3]: 0.993 fold; Fold FcγRI [4]: 2.35 fold
18 | anti-CD19 WT IgG1 antibody (HuAM4G7 Fv, native human IgG1 Fc) |  |  | Fold FcγRIIIaF (FcγRIIIaF (human)): 1 fold
